Source: patent CN101724074A (SUZHOU IND PARK CHENJIAN ANTIB, dated 2010)

Target: T1, 重组人ATP5B (rhATP5B) (human, UniProt P06576 48-529)
T1 construct: mature; Mr about 55 000; also called rhATP5B蛋白; rhATP5B抗原; not shown: His-tag and vector-derived residues of pET28a(+) (insert cloned SacI/HindIII)
Assay: ELISA on culture supernatant of CHO-DG44 transfectants

T1 sequence (P06576 48-529): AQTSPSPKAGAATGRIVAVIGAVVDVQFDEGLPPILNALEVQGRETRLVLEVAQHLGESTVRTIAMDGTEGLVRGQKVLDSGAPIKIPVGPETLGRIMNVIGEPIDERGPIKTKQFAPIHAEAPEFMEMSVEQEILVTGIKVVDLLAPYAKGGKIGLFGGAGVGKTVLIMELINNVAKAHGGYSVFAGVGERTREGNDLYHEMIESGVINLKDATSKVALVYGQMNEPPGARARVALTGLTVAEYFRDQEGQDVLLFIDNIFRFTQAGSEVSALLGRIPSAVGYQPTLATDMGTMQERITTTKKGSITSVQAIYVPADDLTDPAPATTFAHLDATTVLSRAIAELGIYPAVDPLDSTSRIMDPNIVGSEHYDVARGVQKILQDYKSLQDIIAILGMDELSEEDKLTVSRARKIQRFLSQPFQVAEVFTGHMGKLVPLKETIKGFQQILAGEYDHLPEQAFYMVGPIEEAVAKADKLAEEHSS

binding result: binds
B1: 抗ATP5B人鼠嵌合抗体c7A8 (antibody, human IgG1, kappa, V domains shown)
VH: EVQLLESGAELVKPGASVKLSCTASGFNIKDAYMYWVRQRPEQGLEWIGRIDPANDNTKYDPKFQGRATITADTSSNTAYLQLSSLTSEDTAVHYCARFYSVYAMDYWGQGTSVTVSS
VL: TQSPAIMSASPGEKVTITCSASSSVSYMHWFQQQPGTSPKLWVYTTSNLAFGVPARFSGSGPGTSYSLTISRMEAEDAATYYCQQRSSYPLTFGAGTKLELTR
notes: Chimeric IgG1/kappa: signal peptide and variable region of m7A8 joined to human IgG1 constant regions; tested as culture supernatant of transfected CHO-DG44 clone E1; also called 血管抑素受体β亚基人源化嵌合抗体; 人源化嵌合抗体
